Reference: patent US7135170B2 (ZymoGenetics, Inc., priority 2002, dated 2006)

Experiments:
HSV-2 = HSV-2 cytopathic effect inhibition in Vero cells; assay type: cell-based, Herpes Simplex Virus-2; conditions: HSV-2, Vero cells
Procedure: The Vero cells are propagated in Dulbecco's modified essential medium (DMEM) containing phenol red with 10% horse serum, 1% glutamine and 1% penicillin-streptomycin, while the CPE inhibition assays are performed in DMEM without phenol red with 2% FBS, 1% glutamine and 1% Pen-Strep. On the day preceding the assays, cells were trypsinized (1% trypsin-EDTA), washed, counted and plated out at 10^4 cells/well in a 96-well flat-bottom BioCoat® plates (Fisher Scientific, Pittsburgh, Pa.) in a volume of 100 μl/well. The next morning, the medium was removed and a pre-titered aliquot of virus was added to the cells. The amount of virus used is the maximum dilution that would yield complete cell killing (>80% ) at the time of maximal CPE development. Cell viability is determined using a CellTiter 96® reagent (Promega) according to the manufacturer's protocol, using a Vmax plate reader (Molecular Devices, Sunnyvale, Calif.). Compounds are tested at six concentrations each, diluted in assay medium in a half-log series. Acyclovir was used as a positive control. Compounds are added at the time of viral infection. The average background and drug color-corrected data for percent CPE reduction and percent cell viability at each concentration are determined relative to controls and the IC50 calculated relative to the TC50.

[1] = system: ISG gene expression (OAS, Pkr, Mx1) in liver, spleen and blood; test: ISG gene expression in liver, spleen and blood of injected mice (real-time PCR); assay type: in vivo, mouse; conditions: mice
Procedure: Mice were sacrificed at various time points (1 hr-48 hr). Spleens and livers were isolated from mice, and RNA was isolated. RNA was also isolated from the blood cells. The cells were pelleted and RNA isolated from pellets using RNAEasy®-kit (Qiagen). RNA was treated with DNase (Amicon) to rid RNA of any contaminating DNA. cDNA was generated using Perkin-Elmer RT mix (Perkin-Elmer). ISG gene induction was measured by real-time PCR using primers and probes specific for mouse OAS, Pkr and Mx1. To obtain quantitative data, HPRT real-time PCR was duplexed with ISG PCR. A standard curve was calculated using known amounts of IFN-stimulated mouse PBLs. All data are shown as expression relative to internal HPRT expression.
Results shown are fold expression relative to HPRT gene expression. […] The data shown is the average expression from 5 different animals/group.
Mice were injected with 100 μg of proteins i.v. Data shown is fold expression over HPRT expression from livers of mice. Similar data was obtained from blood and spleens of mice.

HHV-8 = HHV-8 replication in BCBL-1 cells (TaqMan PCR, CellTiter96); assay type: cell-based, Human Herpesvirus-8; conditions: six days
[2] = system: human marrow mononuclear cells; test: Bone marrow expansion assay (Alamar Blue); assay type: cell-based; conditions: in the presence of IL-2 or IL-15
[3] = system: ISGs OAS, Pkr and Mx1 in spleens; test: ISG expression in spleens of Eu-lck human IL-29 transgenic mice; assay type: in vivo, mouse; conditions: spleen of IL-29 Tg mice
Procedure: This promoter is active in T cells and B cells. Transgenic mice and their non-transgenic littermates (n=2/gp) were sacrificed at about 10 weeks of age. Spleens of mice were isolated. RNA was isolated from cell pellets using RNAEasy-kit® (Qiagen). RNA was treated with DNase to clean RNA of any contaminating DNA. cDNA was generated using Perkin-Elmer RT® mix. ISG gene induction was evaluated by real-time PCR using primers and probes (5′ FAM, 3′ NFQ) specific for mouse OAS, Pkr and Mx1. To obtain quantitative data, HPRT real-time PCR was duplexed with ISG PCR. Furthermore, a standard curve was obtained using known amounts of IFN stimulated mouse PBLs. All data are shown as expression relative to internal HPRT expression.
All data shown are fold expression relative to HPRT gene expression. The average expression in two mice is shown

[4] = system: ISG induction (OAS, Pkr, Mx1) in AML-12 cells; test: ISG induction in the mouse liver cell line AML-12 (real-time PCR); assay type: cell-based; conditions: AML-12, 20 ng/ml, 48 hour time point
Procedure: AML-12 cells were plated in 6-well plates in complete DMEM media at a concentration of 2×10^6 cells/well. […] As a control, cells were either stimulated with mouse IFNα (positive control) or unstimulated (negative). […] RNA was isolated from cell pellets using RNAEasy-kit® (Qiagen, Valencia, Calif.). RNA was treated with DNase (Millipore, Billerica, Mass.) to clean RNA of any contaminating DNA. cDNA was generated using Perkin-Elmer RT mix. ISG gene induction was evaluated by real-time PCR using primers and probes specific for mouse OAS, Pkr and Mx1. To obtain quantitative data, HPRT real-time PCR was duplexed with ISG PCR. A standard curve was obtained using known amounts of RNA from IFN-stimulated mouse PBLs. All data are shown as expression relative to internal HPRT expression.
All data shown were expressed as fold relative to HPRT gene expression

EMCV = EMCV antiviral assay (MTT dye-uptake) in HepG2 cells; assay type: cell-based, encephalomyocarditis virus; conditions: cytokine 24 hours before EMCV, OD570
adenoviral vector, AdGFP = test: Adenoviral vector (AdGFP) liver pathology in mice; conditions: for liver and inflammation scores (histology): vs the PBS-treated group
BVDV = BVDV cytopathic effect inhibition in MDBK bovine kidney cells; assay type: cell-based, bovine viral diarrhea virus
Procedure: The MDBK cells were propagated in Dulbecco's modified essential medium (DMEM) containing phenol red with 10% horse serum, 1% glutamine and 1% penicillin-streptomycin. CPE inhibition assays were performed in DMEM without phenol red with 2% FBS, 1% glutamine and 1% Pen-Strep. On the day preceding the assays, cells were trypsinized (1% trypsin-EDTA), washed, counted and plated out at 10^4 cells/well in a 96-well flat-bottom BioCoat® plates (Fisher Scientific, Pittsburgh, Pa.) in a volume of 100 μl/well. The next day, the medium was removed and a pre-titered aliquot of virus was added to the cells. The amount of virus was the maximum dilution that would yield complete cell killing (>80% ) at the time of maximal CPE development (day 7 for BVDV). Cell viability was determined using a CellTiter96® reagent (Promega) according to the manufacturer's protocol, using a Vmax plate reader (Molecular Devices, Sunnyvale, Calif.). Test samples were tested at six concentrations each, diluted in assay medium in a half-log series. IFNα and RIBAVIRIN® were used as positive controls. Test sample were added at the time of viral infection. The average background and sample color-corrected data for percent CPE reduction and percent cell viability at each concentration were determined relative to controls and the IC50 calculated relative to the TC50.

[5] = system: ISRE signaling in HepG2 cells; test: ISRE-luciferase signal transduction reporter assay in HepG2 cells; assay type: cell-based, human; conditions: 100 ng/ml ligand, 4-hour; RLU over medium alone
Mouse B cells = test: Mouse B cell 3H-thymidine incorporation; assay type: cell-based
Procedure: Mouse B cells were isolated from 2 Balb/C spleens (7 months old) by depleting CD43+ cells using MACS magnetic beads. Purified B cells were cultured in vitro with LPS, anti-IgM or anti-CD40 monoclonal antibodies. Mouse IL-28 or mouse IFNα was added to the cultures and ^3H-thymidine was added at 48 hrs. and ^3H-thymidine incorporation was measured after 72 hrs. culture.

OAS activity = OAS activity in serum and plasma of mice (OAS radioimmunoassay); assay type: in vivo, mouse; conditions: i.v., 10 μg–250 μg
Procedure: Serum and plasma were isolated from mice at varying time points, and OAS activity was measured using the OAS radioimmunoassay (RIA) kit from Eiken Chemicals (Tokyo, Japan).

[6] = average of two mice (Non-Tg 4.5)

With IFNα the antiviral activity (HSV-2) was “no antiviral activity”.

B1: IL-29: human IL-29 polypeptide, previous designation zcyto21 (SEQ ID NOS: 4, 20, 38) (protein, listed as Homo sapiens)
chain: MAAAWTVVLVTLVLGLAVAGPVPTSKPTTTGKGCHIGRFKSLSPQELASFKKARDALEESLKLKNWSCSSPVFPGNWDLRLLQVRERPVALEAELALTLKVLEAAAGPALEDVLDQPLHTLHHILSQLQACIQPQPTAGPRPRGRLHHWLHRLQEAPKKESAGCLEASVTFNLFRLLTRDLKYVADGNLCLRTSTHPEST
modifications: SIGNAL (1)...(19)
With B1 the “time of peak expression of ISGs after injection” value [1] was 1 to 6 h, the “IC50, extracellular HHV-8 DNA” value (HHV-8) was 6.5 µg/mL and the “expansion of bone marrow cells” value [2] was “small inhibition”. The Mx1 expression ([3]; average of two mice (Non-Tg 3.5)) was 21 fold expression relative to HPRT gene expression, the OAS expression [3, 6] was 12 fold expression relative to HPRT gene expression and the PkR expression [3, 6] was 8 fold expression relative to HPRT gene expression. The Mx1 expression [4] was 0.07 fold relative to HPRT gene expression, the OAS expression [4] was 0.04 fold relative to HPRT gene expression and the PkR expression [4] was 0.02 fold relative to HPRT gene expression. The EC50 (EMCV) was 0.0006 µg/mL, the “liver histology: sinusoidal cells, mitotic figures, changes in the hepatocytes” value (adenoviral vector, AdGFP; vs the PBS treatment group) was “less proliferation of sinusoidal cells, fewer mitotic figures and fewer changes in the hepatocytes” and the “liver and inflammation scores (histology)” value (adenoviral vector, AdGFP) was “lower liver and inflammation scores”. For the same molecule, the “IC50, inhibition of cell death induced by BVDV” value (BVDV) was 0.19 µg/mL.

B2: Zcyto24: previous designation for mouse IL-28A (SEQ ID NO: 8); mouse IL-28 (zcyto24) in b234 (protein, listed as Mus musculus)
chain: MKPETAGGHMLLLLLPLLLAAVLTRTQADPVPRATRLPVEAKDCHIAQFKSLSPKELQAFKKAKDAIEKRLLEKDLRCSSHLFPRAWDLKQLQVQERPKALQAEVALTLKVWENMTDSALATILGQPLHTLSHIHSQLQTCTQLQATAEPRSPSRRLSRWLHRLQEAQSKETPGCLEASVTSNLFRLLTRDLKCVANGDQCV
With B2 the “Fold Inductn. of ISRE signaling” value [5] was 4.7 fold, the “3H-thymidine incorporation by mouse B cells” value (Mouse B cells; stimulated with LPS or anti-IgM, IFNα 10 ng/ml, mouse IL-28 any concentration incl. 1000 ng/ml) was “did not inhibit” and the “3H thymidine incorporation by mouse B cells” value (Mouse B cells; stimulated with anti-CD40 MAb) was “increased”. The Mx1 expression [4] was 0.08 fold relative to HPRT gene expression, the OAS expression [4] was 0.04 fold relative to HPRT gene expression and the PkR expression [4] was 0.02 fold relative to HPRT gene expression. For the same molecule, the “liver and inflammation scores (histology)” value (adenoviral vector, AdGFP) was “lower liver and inflammation scores”.

B3: IL-28A: human IL-28A polypeptide, previous designation zcyto20 (SEQ ID NOS: 2, 18, 36) (protein, listed as Homo sapiens)
chain: MKLDMTGDCTPVLVLMAAVLTVTGAVPVARLHGALPDARGCHIAQFKSLSPQELQAFKRAKDALEESLLLKDCRCHSRLFPRTWDLRQLQVRERPMALEAELALTLKVLEATADTDPALVDVLDQPLHTLHHILSQFRACIQPQPTAGPRTRGRLHHWLYRLQEAPKKESPGCLEASVTFNLFRLLTRDLNCVASGDLCV
modifications: SIGNAL (1)...(25)
B3 was tested, and the “IC50, extracellular HHV-8 DNA” value (HHV-8) was 1 µg/mL, the Mx1 expression [4] was 0.06 fold relative to HPRT gene expression and the OAS expression [4] was 0.04 fold relative to HPRT gene expression. For the same molecule, the PkR expression [4] was 0.02 fold relative to HPRT gene expression, the “OAS activity in the serum and plasma of mice” value (OAS activity) was “induced OAS activity” and the “IC50, inhibition of cell death induced by BVDV” value (BVDV) was 0.02 µg/mL.
